Reference: US5683903

Target: macrophage scavenger receptors on transfected 293 cells (human macrophage scavenger receptor type I or type II; the filing does not say which)
Assay: radioligand binding/uptake on transfected HEK 293 cells; about 5 µg/ml, 5 hours at 37° C.

- binding/uptake (µg/mg protein): 1.75
Substance: [125I]-acetylated LDL
